Legend:
[1] = molecular target: T1, CaV1.2 IQ domain IQ domain (Homo sapiens, UniProt Q13936, Ca2+); assay: ITC, 15°C
[2] = molecular target: T1, CaV1.2 IQ domain IQ domain; assay: competition ITC
[3] = molecular target: T1, CaV1.2 IQ domain IQ domain; assay: ITC, 25°C

T1 sequence (Q13936 1665-1685): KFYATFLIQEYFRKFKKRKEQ

B1: CaBP1 N-lobe N-lobe (protein)
chain: not shown
Binder B1 has a Kd [1] of 1100 nM.

B2: CaBP1 16-167 (protein)
chain: ARLQRVLGLGSRREPRSLPAGGPAPRRTAPPPPGHASAGPAAMSSHIAKSESKTSLLKAAAAAASGGSRAPRHGPARDPGLPSRRLPGSCPATPQSSGDPSSRRPLCRPAPREEGARGSQRVLPQAHCRPREALPAAASRPSPSSPLPPARG
Binder B2 has a Kd [2] of 0.288 nM.

B3: CaBP1 C-lobe C-lobe (protein)
chain: ADMIGVKELRDAFREFDTNGDGEISTSELREAMRKLLGHQVGHRDIEEIIRDVDLNGDGRVDFEEFVRMMSR
B3 was tested, and the Kd [1] was 10.5 nM and the Kd [3] was 15 nM.

— publication PMC3033571 (2011)
